# Experimental data published in the DeepSol protein solubility set.
# Assay: soluble on expression in E. coli; label from the status in PepcDB or PDB records
row,Sequence,soluble on expression in E. coli
1,GMSVAAEVAQVAQSAIDDFNAAYGLCLDDDRLEQWPTLFVDDCLYQVIARENVDNGLPAAVMYCDSKGMLADRVVALRKANVFPEHFNRHLIGRAVITGVEGDQVSAEASYVVFQTRNDGETRIYNAGKYVDRFDLSGGTVRLKSRTCIYDTLRIATLLATPI,soluble
2,MKIISEGETKLMVPEESTLSKKDTVFYNPVMETNRDISVSVVQSFLDDFKRDEFLMCDPLGGSGARGIRYAKELKFNGDLKVSIGDINPSAVKMIKENLKLNELENVEVFHEDANVLLSKNFKVFNVVDLDPFGSPVPYLDSGIRASLTKGGLLCMTATDTAVLCGAYRKTCIRKYNAVPLKGDKELAVRLMIGYAVKMASKYDIGLKPIFSHVTDHYARTFMVTERGAGKADSAIENLGYIRQDSEQKSFKTFEEGSEKGYAGPFYLGEISDKNIVQNALNTAKTRNYSKRAVNILEMISRESEINQVGCFDIHELCSFIKKLVPPVNDIMENLKENGFKVTRVHYNPYGLKTDAELSDLVVLISEYHSKKYLEHHHHHH,not soluble
3,MKLSATIAIILLNWNGWRDTVDCVESCRKLDYPNFRIVIVDNGSTDGSEAILRERFPDVELIQTGANLGFAGGNNAGIRHALVRGADYVWLLNNDTVVEPGALGALVRVAESDPRVGMVGSKIVYFDDPWLLWFAGAVIDPERPHRPFHRGLHERDTGQYDRVAETGYVTGCSLLARREMMAEVGMLDDDLFLYFEDADWSARAARAGWKLLYVPDSVVRHKESVSSGGAASPRLVYYTARNRLYFVRRNFPAKLAAALCYDLFEHVLVNVKKGRFPLAVAGCRGIRDFLAGKIGPMPLEHHHHHH,soluble
4,SMANHLVKPDSRNCKRARELEPQVSDSPQVSSLGKSESSLSEASGLFYKEEALEKDLSDMSKEINLMLSTYAKILSERAAVDASYIDEIDGLFKEANIIENFLVQKREFLKQRFTVITNTLHK,soluble
5,MGSDKIHHHHHHMKVSVVILNWNGCDMLRTFLPSVIRYSKSEEVEVCVADNGSTDASVEMLREEFPCVRIIVLDQNHGFADGYNLALQQVEAEYVVLLNSDVEVTEHWLEPMISYLDGHPEVAACQPKIRSQRQKEYFEYAGAAGGFIDKYGYPFCRGRIMGVVEKDEGQYDTILPVFWATGAALFIRHADYREAGGLDGRFFAHMEEIDLCWRLRSRGREIVCIPQSTVYHVGGATLKKENPRKTFLNFRNNLVMLYKNLSDEELNKVMRIRTCLDYVAAFTFLLKGQLDNARAVMRARKEYKQICPSFSSSRKENLRKTSLNPIPERIKSSILWQFYVGGCKRFSQLSDLKG,not soluble
6,MSLKINRIVNEGFMKTMLAAYLLGNSTVDLREVAVPTPGINQVLIKMKSSGICGSDVHYIYHQHRATAAAPDKPLYQGFINGHEPCGQIVAMGQGCRHFKEGDRVLVYHISGCGFCPNCRRGFPISCTGKGKAAYGWQRDGGHAEYLLAEEKDLILLPDALSYEDGAFISCGVGTAYEGILRGEVSGSDNVLVVGLGPVGMMAMMLAKGRGAKRIIGVDMLPERLAMAKQLGGMDHGYLATTEGLPQIIAELTHGGADVALDCSGNAAGRLLALQSTADWGRVVYIGETGKVEFEVSADLMHHQRRIIGSWVTSLFHMEKCAHDLTDWKLWPRNAITHRFSLEQAGDAYVLMASGKCGKVVINFPDEGHHHHHH,not soluble
7,AMNAYYIQDRLEAQSWARHYQQLAREEKEAELADDMEKGIPQHLFESLCIDHLQRHGASKKSITRAFDDDVEFQERMAEHIRYMVETIAHHQVDIDSEV,soluble
8,AHHHHHHGSPRLIKDRVPTPERSVGERVRDFGEVNLGYSWELALREAERCLQCPVEYAPCIKGCPVHINIPGFIKALRENRDNPSKAVREALRIIWRDNTLPAITGRVCPQEEQCEGACVVGKVGDPINIGKLERFVADYAREHGIDDELLLEEIKGIKRNGKKVAIIGAGPAGLTCAADLAKMGYEVTIYEALHQPGGVLIYGIPEFRLPKEIVKKELENLRRLGVKIETNVLVGKTITFEELREEYDAIFIGTGAGTPRIYPWPGVNLNGIYSANEFLTRINLMKAYKFPEYDTPIKVGKRVAVIGGGNTAMDAARSALRLGAEVWILYRRTRKEMTAREEEIKHAEEEGVKFMFLVTPKRFIGDENGNLKAIELEKMKLGEPDESGRRRPIPTGETFIMEFDTAIIAIGQTPNKTFLETVPGLKVDEWGRIVVDENLMTSIPGVFAGGDAIRGEATVILAMGDGRKAAKAIHQYLSKEK,soluble
